Source: the supplement of paper PMC12764529
± gives the half width of the 95% confidence interval.

Experiments:
[1] = folding stability dG unfold from trypsin proteolysis; higher = more stable
Method in brief: (§1)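 Bayesian fitting of sequencing counts gave K50 for each design. Unfolding free energy followed by setting this against a sequence-predicted unfolded-state K50 and a shared folded-state K50, either per protease or with trypsin and chymotrypsin combined. The designs, under 80 residues and lacking cysteine, were digested in a PA-tagged cDNA display format at 11 threefold-diluted protease concentrations and without protease, and only those with AlphaFold2 dimer inter-PAE above 15 were kept.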

[2] = folding stability dG unfold from chymotrypsin proteolysis; higher = more stable
Method in brief: as §1

[3] = folding stability dG unfold (combined trypsin and chymotrypsin); higher = more stable
Method in brief: as §1

Row | Sequence | folding stability dG unfold [1] | folding stability dG unfold [2] | folding stability dG unfold [3]
1 | SAGGSAGGSAGMEITRDKTPDGVWTVTITVPRPDGPSITVTVTGSPDGDFAPEKIAAVLASAGGSAGGSAGG [r11_759_JUSTAS] | 1.15 ± 0.038 kcal/mol | 0.078 ± 0.19 kcal/mol | 0.819 ± 0.13 kcal/mol
2 | SAGGSAGGSAGMELKIKVTLTPPGAPVPLTLELEVESEEEARERLEKEYPDREIELEVLESAGGSAGGSAGG [r17_428_JUSTAS] | -0.534 ± 0.072 kcal/mol | 0.354 ± 0.088 kcal/mol | 0.143 ± 0.093 kcal/mol
3 | SAGGSAGGSAGMELTVKVPPDTTPEEVKEKIEKELGLKVKSISVSSFPDGTRTVTITIGPSAGGSAGGSAGG [r17_222_JUSTAS] | 2.45 ± 0.27 kcal/mol | 2.45 ± 0.14 kcal/mol | 2.45 ± 0.21 kcal/mol
4 | SAGGSAGGSAGMEPEIYTITTTDSNGNTSSYTFTSTEEVNAFLNDPSFQSSAVSFTVSPTSAGGSAGGSAGG [r11_1047_JUSTAS] | 2.57 ± 0.053 kcal/mol | 2.88 ± 0.047 kcal/mol | 2.76 ± 0.076 kcal/mol
5 | SAGGSAGGSAGMEPIRVTVTTQDTATGTTTTTTVTVPTDVPVEAVLAALDPALVTAVTVESAGGSAGGSAGG [r11_386_JUSTAS] | 1.68 ± 0.061 kcal/mol | -0.172 ± 0.072 kcal/mol | 0.808 ± 0.11 kcal/mol
6 | SAGGSAGGSAGMETTVLEEVPPEELAKGQTRLEKLPDGTIIERTVAPEGEVVETKTIPPKSAGGSAGGSAGG [r17_2_JUSTAS] | 1.94 ± 0.21 kcal/mol | 0.421 ± 0.12 kcal/mol | 1.09 ± 0.48 kcal/mol
7 | SAGGSAGGSAGMFVERTLEITFVRPPNGPGPEEVEKRAKELQEKNPHLNVKVKVVDPSEASAGGSAGGSAGG [r17_220_JUSTAS] | 0.669 ± 0.086 kcal/mol | 0.795 ± 0.1 kcal/mol | 0.699 ± 0.26 kcal/mol
8 | SAGGSAGGSAGMIDIKFEKIEGSSEYRATLTRPGGEVVPVLFSSSESAEEAKERAIELLESAGGSAGGSAGG [r17_161_JUSTAS] | 0.906 ± 0.06 kcal/mol | 1.28 ± 0.11 kcal/mol | 1.15 ± 0.12 kcal/mol
9 | SAGGSAGGSAGMIKIEETVVLPDGTVVRKEKEIEPPNGKTTTLKTETVPVLSPGSESLLLSAGGSAGGSAGG [r11_919_JUSTAS] | 0.429 ± 0.041 kcal/mol | 0.313 ± 0.074 kcal/mol | 0.461 ± 0.067 kcal/mol
10 | SAGGSAGGSAGMIVAKVVEYDPETGEITIEVDGKKITLPLKNMKIKEVNGYLVIEFKEDDSAGGSAGGSAGG [r17_403_TrROS_Hall] | 2.89 ± 0.11 kcal/mol | 3.43 ± 0.082 kcal/mol | 3.25 ± 0.072 kcal/mol
11 | SAGGSAGGSAGMIVIKNPETKEYYVIKFDGKEYVIELSEDELKELLEKLKGKDVEIKKLPSAGGSAGGSAGG [r11_57_TrROS_Hall] | 2.01 ± 0.16 kcal/mol | 1.93 ± 0.048 kcal/mol | 1.96 ± 0.2 kcal/mol
12 | SAGGSAGGSAGMIVLFPLEEKKFIIYDPETGKVEEIEGTPEEVLEYAKKKYPDKEVYLLPSAGGSAGGSAGG [r11_614_TrMRF] | 3.25 ± 0.36 kcal/mol | 5.19 ± 0.3 kcal/mol | 5.15 ± 0.49 kcal/mol
13 | SAGGSAGGSAGMKIEIELDENGELRIRITVYNKETKEEVEEFEFTLPLEELEEELRKLLESAGGSAGGSAGG [r11_376_TrROS_Hall] | 3.16 ± 0.12 kcal/mol | 3.62 ± 0.15 kcal/mol | 3.5 ± 0.22 kcal/mol
14 | SAGGSAGGSAGMKIEYEHDPNRNWYTVKIDFPNGPPKIPIQVPHDDMPPNDLRDWAKELFSAGGSAGGSAGG [r11_557_TrROS] | 0.459 ± 0.12 kcal/mol | 0.58 ± 0.33 kcal/mol | 0.475 ± 0.28 kcal/mol
15 | SAGGSAGGSAGMKIKFPNGKVVEIHMDEDSGNIEIEFPDGKKKEINIPGMSIDDILDYLKSAGGSAGGSAGG [r11_729_TrROS] | 1.56 ± 0.036 kcal/mol | 1.46 ± 0.033 kcal/mol | 1.59 ± 0.045 kcal/mol
16 | SAGGSAGGSAGMKKVLIIGGPKEELAKELKEKSPDIEVEFLDPSEDLEEYKKKFDIVIIESAGGSAGGSAGG [r17_225_JUSTAS] | -0.387 ± 0.09 kcal/mol | 0.255 ± 0.072 kcal/mol | 0.0867 ± 0.084 kcal/mol

Row | Sequence | folding stability dG unfold [1] | folding stability dG unfold [2] | folding stability dG unfold [3]
17 | SAGGSAGGSAGMKLPEGWEIVAVYRDKETNKLYLIVRDTKTKKLLIVDLDTKKIISAEELSAGGSAGGSAGG [r11_268_TrROS_Hall] | 3.63 ± 0.18 kcal/mol | 4.1 ± 0.13 kcal/mol | 4.06 ± 0.1 kcal/mol
18 | SAGGSAGGSAGMKNKNYKVYTYKINIIDPGYENTTIIVEPNPAKPKAKPITIPIIIVEPASAGGSAGGSAGG [r11_257_TrMRF] | 0.57 ± 0.083 kcal/mol | 1.03 ± 0.18 kcal/mol | 0.797 ± 0.21 kcal/mol
19 | SAGGSAGGSAGMKPDDTVTYTITVPHPESGEPLAEIELTYPVGTPIEKVKEEAKILAEKISAGGSAGGSAGG [r11_516_TrMRF] | 0.515 ± 0.03 kcal/mol | 0.141 ± 0.27 kcal/mol | 0.429 ± 0.088 kcal/mol
20 | SAGGSAGGSAGMKTLKTTTKVFPGTGVIVTESLVEFPNGSLKKLTKVTYVKNPNPSTTLASAGGSAGGSAGG [r17_41_JUSTAS] | 0.474 ± 0.093 kcal/mol | 0.545 ± 0.14 kcal/mol | 0.602 ± 0.19 kcal/mol
21 | SAGGSAGGSAGMKTRTITVSVSPEESEEEVRERVEAELPPGSVVEVTRLPDGTVVVTVEESAGGSAGGSAGG [r17_20_JUSTAS] | 0.401 ± 0.043 kcal/mol | 1.99 ± 0.035 kcal/mol | 1.55 ± 0.048 kcal/mol
22 | SAGGSAGGSAGMKTVTETEFDPAAPVVTTTTSLVTLPPDGKPSITSTTTTTTAVAAPAAAASAGGSAGGSAG [r3_138_JUSTAS] | -0.0492 ± 0.05 kcal/mol | 1.41 ± 0.038 kcal/mol | 1.03 ± 0.062 kcal/mol
23 | SAGGSAGGSAGMKVAVLTIPENGKPVLVVELPDGGALAFDPDTDAVFLLDDDKIYYLGPASAGGSAGGSAGG [r17_476_TrMRF] | 0.0117 ± 0.033 kcal/mol | 1.52 ± 0.059 kcal/mol | 1.13 ± 0.075 kcal/mol
24 | SAGGSAGGSAGMKVEEVPETPVWRFTITRGKKTTIVEVEVPPDEPPDPAEVAAELGYELESAGGSAGGSAGG [r11_1053_JUSTAS] | 1.84 ± 0.075 kcal/mol | 1.65 ± 0.18 kcal/mol | 1.89 ± 0.25 kcal/mol
25 | SAGGSAGGSAGMKVKTDPSSGPTVNKAYLENGTLILTTVTYDPSNGTTSTTTTVVPLSLLSAGGSAGGSAGG [r17_287_JUSTAS] | 0.433 ± 0.12 kcal/mol | 1.23 ± 0.22 kcal/mol | 0.823 ± 0.21 kcal/mol
26 | SAGGSAGGSAGMLARITLSTPEKPVEYIVPESEVEEYIKKLNLPEDTEVTVTPVDPAALLSAGGSAGGSAGG [r17_395_JUSTAS] | 0.574 ± 0.022 kcal/mol | 1.8 ± 0.032 kcal/mol | 1.4 ± 0.037 kcal/mol
27 | SAGGSAGGSAGMLPLEELLKKNPKPIKVLVKVGDTEYLVEVTPGEKKYTIKVKPLKKSKPSAGGSAGGSAGG [r11_549_TrMRF] | 1.08 ± 0.026 kcal/mol | 1.55 ± 0.047 kcal/mol | 1.41 ± 0.076 kcal/mol
28 | SAGGSAGGSAGMPEKVTLTFERSSEVFDPKLGKWRTLPSTEVVEFDSEEEAEELKEKLGLSAGGSAGGSAGG [r11_984_JUSTAS] | -0.506 ± 0.55 kcal/mol | 0.575 ± 0.36 kcal/mol | 0.123 ± 0.31 kcal/mol
29 | SAGGSAGGSAGMPKVEAVDISYSADPNSKSYTITIKSPDGEPIVLTLNSPSEIENLELVLSAGGSAGGSAGG [r11_711_JUSTAS] | 1.19 ± 0.026 kcal/mol | 1.34 ± 0.1 kcal/mol | 1.34 ± 0.13 kcal/mol
30 | SAGGSAGGSAGMPLYIIEVEKEDGSKITITIPENMTEEEIKKIAEELGIKKVEIIKKEDLSAGGSAGGSAGG [r11_490_TrROS_Hall] | 1.91 ± 0.061 kcal/mol | 1.8 ± 0.053 kcal/mol | 1.84 ± 0.087 kcal/mol
31 | SAGGSAGGSAGMRIVIEVPEDTTVEELAKKLADLGYEVEIRVERDENGRLLVVIEIRPKDSAGGSAGGSAGG [r11_1050_TrROS_Hall] | 2.66 ± 0.088 kcal/mol | 2.88 ± 0.12 kcal/mol | 2.8 ± 0.14 kcal/mol
